Test [1] addresses phosphopeptide. Put plainly: competition binding.
Test [2] concerns the target pTyr-containing peptide (pEZ) derived from Ezrin, PPV{pTyr}EPVS. The experiment in a line: fluorescence polarization, purified SH2 domain with fluorescein-labelled ezrin phosphopeptide. A general note: Fluorescence polarisation rises when a labelled molecule tumbles more slowly, as on binding a larger partner.
Test [3] has the same target. The experiment in a line: fluorescence polarization; the wt is the reference.
Test [4] has the same target. Put plainly: competitive phage ELISA (IC50), soluble Ezrin phosphopeptide against the immobilized peptide.
In test [5] the target is Phosphopeptide PPPT{pTyr}TEVDP. The experiment in a line: competitive ELISA, soluble phosphopeptide titrated against the immobilized peptide. (In general: ELISA stands for enzyme-linked immunosorbent assay.)
The target of test [6] is Phosphopeptide KQVE{pTyr}LDLDLD. The test is described as above.
Test [7] concerns the target pMT peptide EEPQ{pTyr}EEIPIY. The experiment in a line: competitive phage ELISA (IC50), soluble pMT peptide against the immobilized peptide.

One may read the IC50 as the midpoint of a concentration-inhibition curve. Low readings indicate higher potency, high ones lower potency.

Abl1 sFes came in with a 50% inhibitory concentration (IC50) in test [1] of 120 nM.

As to Abl1 sSrc, the concentration for half-maximal inhibition (IC50) in test [1] is 290 nM.

Consider Abl1 wt, for which the IC50 in test [1] turned out to be 1600 nM.

As for Blk sFes, the 50% inhibitory concentration (IC50) in test [1] worked out at 940 nM.

Substance Blk sSrc showed an IC50 in test [1] of 110 nM.

Take Blk wt: the IC50 in test [1] was > 20000 nM.

In test [1], Btk sFes returned a concentration for half-maximal inhibition (IC50) of 1100 nM.

Consider Btk sSrc, for which, in test [1], the IC50 was 810 nM.

With Btk wt, in test [1], the IC50 was > 20000 nM.

As for Crkl sSrc, the half-maximal inhibitory concentration (IC50) in test [1] is 27 nM.

The substance Crkl wt registered a half-inhibitory concentration (IC50) in test [1] of 3100 nM.

“Fes SH2 domain, wild type (Fes^wt) (from UniProt P07332 460-549)”: the IC50 in test [2] amounted to 1300 nM. In test [3], this substance displayed a Fold Change of 1 fold.

For “Fes^sSrc, Fes SH2 domain with the sSrc superbinder motif grafted (designed binder)”, in test [4], the fold enhancement of affinity over wt was determined as 650 fold.

In test [1], Grb2 sFes returned an IC50 of 90 nM.

In test [1], Grb2 sSrc showed an IC50 of 11 nM.

Turning to Grb2 wt, in test [1], the IC50 was found to be 560 nM.

Lck sFes came in with an IC50 in test [1] of 70 nM.

Take Lck sSrc: the IC50 in test [1] stood at 12 nM.

Substance Lck wt displayed a 50% inhibitory concentration (IC50) in test [1] of 360 nM.

Nck1 sFes: in test [1], the IC50 was > 20000 nM.

As to Nck1 sSrc, the IC50 in test [1] is 100 nM.

As for Nck1 wt, the IC50 in test [1] worked out at 2000 nM.

For P55G_N sFes, the half-maximal inhibitory concentration (IC50) in test [1] was determined as 1900 nM.

In test [1], P85A_N sFes yielded a half-inhibitory concentration (IC50) of 0.9 nM.

P85A_N sSrc: in test [1], the half-maximal inhibitory concentration (IC50) turned out to be 2300 nM.

Regarding P85A_N wt, the concentration for half-maximal inhibition (IC50) in test [1] was 540 nM.

As for P85B_N sFes, the IC50 in test [1] was determined as 220 nM.

In the case of P85B_N sSrc, in test [1], the IC50 was > 20000 nM.

As to P85B_N wt, the half-inhibitory concentration (IC50) in test [1] was > 20000 nM.

Ptn11_C^sFes/αA-2-Arg (designed binder): the IC50 in test [5] came to 1100 nM.

As for “Ptn11_N^αA-2-Arg, Ptn11_N SH2 domain with the αA-2 position mutated to Arg (designed binder)”, the IC50 in test [6] worked out at 14 nM.

Regarding Shc1 sFes, in test [1], the IC50 was > 20000 nM.

For the substance Shc1 sSrc, the IC50 in test [1] amounted to 7200 nM.

Take Shc1 wt: the IC50 in test [1] was > 20000 nM.

Turning to Src sSrc, the IC50 in test [1] was 19 nM.

Consider “Src^sFes, Src SH2 domain with the sFes superbinder motif grafted (designed binder)”, for which the fold enhancement of affinity over wt in test [7] was 125 fold.

Consider Vav2 sFes, for which, in test [1], the half-maximal inhibitory concentration (IC50) is > 20000 nM.

In the case of Vav2 sSrc, the IC50 in test [1] is 872 nM.

Take Vav2 wt: in test [1], the IC50 is > 20000 nM.

Regarding Vav3 wt, the IC50 in test [1] is > 20000 nM.

Vav sSrc yielded a half-maximal inhibitory concentration (IC50) in test [1] of 950 nM.

Vav wt: in test [1], the IC50 is > 20000 nM.

(Values after patent publication US20260055143A1, “HIGH AFFINITY VARIANTS OF SH2 DOMAINS” (Axoiya Inc., priority 2023, published 2026).)
